# Measurements: doi:10.1101/2025.07.10.664194
# How the values were obtained:
# Experiment in all cases: mass photometry
# EcPD-T4-8 (E. coli) = target: EcPD-T4-8 (E. coli)
# EcPD-T4-1 (E. coli) = target: EcPD-T4-1 (E. coli)
# [1] = target: PaAbpA (not stated (prefix Pa))
# [2] = target: BtHamA (not stated (prefix Bt))
# [3] = target: EcHna (E. coli (from the prefix Ec))
# [4] = target: PfOloA (not stated (prefix Pf))
substance,measurement,setting,value
EcPD-T4-8 (natural protein),stoichiometry N,EcPD-T4-8 (E. coli),4
EcPD-T4-1 (natural protein),stoichiometry N,EcPD-T4-1 (E. coli),2
PaAbpB (natural protein),stoichiometry N (AbpA:AbpB (1:1)),[1],1
BtHamB (natural protein),stoichiometry N (HamA:HamB (1:1)),[2],1
EcHna (natural protein),stoichiometry N,[3],2
PfOloB (natural protein),stoichiometry N (OloA:OloB (2:2)),[4],1
